The numbers were not newly measured in PMC10035860, which cites them from elsewhere.

In the data set the target is growth hormone receptor (Homo sapiens) (UniProt P10912).
UniProt P10912, sequence (P10912 19-638): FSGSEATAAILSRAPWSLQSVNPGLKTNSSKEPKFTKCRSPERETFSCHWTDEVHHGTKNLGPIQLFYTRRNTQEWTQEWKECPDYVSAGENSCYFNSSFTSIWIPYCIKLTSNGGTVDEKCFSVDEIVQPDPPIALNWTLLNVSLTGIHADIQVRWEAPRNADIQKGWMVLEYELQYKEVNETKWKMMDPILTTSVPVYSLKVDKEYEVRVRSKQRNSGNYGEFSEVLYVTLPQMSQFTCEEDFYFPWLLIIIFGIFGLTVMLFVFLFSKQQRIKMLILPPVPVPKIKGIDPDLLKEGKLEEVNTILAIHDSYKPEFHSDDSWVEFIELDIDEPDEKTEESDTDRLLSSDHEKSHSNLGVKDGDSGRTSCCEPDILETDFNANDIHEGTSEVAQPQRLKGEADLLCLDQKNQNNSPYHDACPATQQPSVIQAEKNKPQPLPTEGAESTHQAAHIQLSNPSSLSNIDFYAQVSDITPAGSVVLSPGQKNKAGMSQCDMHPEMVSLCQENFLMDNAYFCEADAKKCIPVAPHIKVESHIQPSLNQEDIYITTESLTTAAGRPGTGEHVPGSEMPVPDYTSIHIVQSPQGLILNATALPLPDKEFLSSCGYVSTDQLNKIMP

growth hormone, sequence (P01241 27-217): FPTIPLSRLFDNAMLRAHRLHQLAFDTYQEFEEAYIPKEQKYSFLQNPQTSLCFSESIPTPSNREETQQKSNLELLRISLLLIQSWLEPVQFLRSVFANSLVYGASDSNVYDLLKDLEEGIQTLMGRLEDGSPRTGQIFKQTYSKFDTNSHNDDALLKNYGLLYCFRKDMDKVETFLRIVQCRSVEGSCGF

In general, Kd refers to the constant that tells how readily two partners part at equilibrium. On to growth hormone (from UniProt P01241), for which the Kd was 300 pM.
